# Results from the supplement of paper PMC7877785.
# ± gives the uncertainty stated by the source.
# Experiment: self-splicing fitness, log relative to wild type (ln ratio); higher = more splicing; Tetrahymena group I intron in knt gene, E. coli kanamycin selection, DiMSum; sequences stand for … in CUCUCU…GGAGGGAAAAGUUAUCAGGCAUGCACCUGGUAGCUAGUCUUUAAACCAAUAGAUUGCAUCGGUUUAAAAGGCAAGACCGUCAAAUUGCGGGAAAGGGGUCAACAGCCGUUCAGUACCAAGUCUCAGGGGAAACUUUGAGAUGGCCUUGCAAAGGGUAUGGUAAUAAGCUGACGGACAUGGUCCUAACCACGCAGCCAAGUCCUAAGUCAACAGAUCUUCUGUUGAUAUGGAUGCAGUUCACAGACUAAAUGUCGGUCGGGGAAGAUGUAUUCUUCUCAUAAGAUAUAGUCGGACCUCUCCUUAAUGGGAGCUAGCGGAUGAAGUGAUGCAACACUGGAGCCGCUGGGAACUAAUUUGUAUGCGAAAGUAUAUUGAUUAGUUUUGGAGUACUCGUGGUCG
# In short: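 Pooled colonies went to amplicon sequencing on an Illumina HiSeq 2500 after six replicate transformations. The plates were LB agar with 100 μg/mL carbenicillin, 50 μM IPTG and 0.2% rhamnose, with or without 25 μg/mL kanamycin, incubated overnight at 37°C or 30°C. The E. coli BL21(DE3) library had all eight P1ex-region intron nucleotides randomised, the intron placed in the knt kanamycin-resistance gene on pET-22b(+). DiMSum fitness is the error-weighted combination of replicate fold changes, kanamycin against none, normalised to wild type.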
Sequence,self-splicing fitness (ln) (30 °C),self-splicing fitness (ln) (37 °C)
GGACAGCAAUAUUACGGUAC,-0.625 ± 0.11,-0.234 ± 0.13
GGACAGCAAUAUUACGUACG,-0.876 ± 0.12,0.399 ± 0.18
GGACAGCAAUAUUACGUCCU,-4.07 ± 0.22,-2.66 ± 0.33
GGACAGCAAUAUUACGUGUA,-0.376 ± 0.078,-0.304 ± 0.085
GGACAGCAAUAUUACGUUAG,-1.24 ± 0.066,-0.49 ± 0.085
GGACAGCAAUAUUACGUUGU,-3.63 ± 0.14,-3.51 ± 0.18
GGAGAGCAAUAUUACGAAUG,-3.28 ± 0.28,-2.71 ± 0.41
GGAGAGCAAUAUUACGACCA,-2.28 ± 0.21,-1.92 ± 0.27
GGAGAGCAAUAUUACGAUAC,-2.61 ± 0.35,-2.47 ± 0.31
GGAGAGCAAUAUUACGAUAU,-3.43 ± 0.24,-0.657 ± 0.16
GGAGAGCAAUAUUACGCACA,,-0.604 ± 0.3
GGAGAGCAAUAUUACGCCUU,-2.58 ± 0.35,
GGAGAGCAAUAUUACGCGCG,-2.27 ± 0.11,-1.26 ± 0.13
GGAGAGCAAUAUUACGGACU,-1.52 ± 0.13,-0.526 ± 0.17
GGAGAGCAAUAUUACGGCGA,-2.22 ± 0.27,-1.69 ± 0.28
GGAGAGCAAUAUUACGGUUC,-1.36 ± 0.38,
GGAGAGCAAUAUUACGUGUC,-3.21 ± 0.26,-1.46 ± 0.24
GGAGAGCAAUAUUACGUUUC,-3.17 ± 0.34,
GGAUAGCAAUAUUACGAGGG,-3.29 ± 0.28,-2.33 ± 0.27
GGAUAGCAAUAUUACGAUCU,-1.25 ± 0.4,-2.24 ± 0.43
GGAUAGCAAUAUUACGAUUA,-0.674 ± 0.17,0.409 ± 0.15
GGAUAGCAAUAUUACGCAAA,-2.14 ± 0.29,

Sequence,self-splicing fitness (ln) (30 °C),self-splicing fitness (ln) (37 °C)
GGAUAGCAAUAUUACGCACU,-2.36 ± 0.15,-1.05 ± 0.15
GGAUAGCAAUAUUACGCAGU,-2.7 ± 0.18,-1 ± 0.12
GGAUAGCAAUAUUACGCCAA,-2.37 ± 0.41,-1.01 ± 0.25
GGAUAGCAAUAUUACGCUUU,-2.1 ± 0.16,-2.16 ± 0.21
GGAUAGCAAUAUUACGGACU,-0.129 ± 0.14,-0.134 ± 0.19
GGAUAGCAAUAUUACGGCCU,-2.24 ± 0.29,-0.0501 ± 0.17
GGAUAGCAAUAUUACGGCGA,-0.101 ± 0.15,-0.302 ± 0.12
GGAUAGCAAUAUUACGGCGG,-1.95 ± 0.14,-0.444 ± 0.13
GGAUAGCAAUAUUACGGGGA,-3.41 ± 0.29,-3.52 ± 0.42
GGAUAGCAAUAUUACGGGGG,-2.14 ± 0.19,-1.8 ± 0.35
GGAUAGCAAUAUUACGGUAA,-2 ± 0.14,-1.45 ± 0.12
GGAUAGCAAUAUUACGGUCU,-3.86 ± 0.4,-1.99 ± 0.18
GGAUAGCAAUAUUACGUAAA,-2.12 ± 0.17,-1.42 ± 0.2
GGAUAGCAAUAUUACGUUUG,-2.95 ± 0.2,-1.87 ± 0.21
GGCAAGCAAUAUUACGAAUC,-0.875 ± 0.17,-0.687 ± 0.26
GGCAAGCAAUAUUACGACCG,-0.371 ± 0.11,-0.482 ± 0.15
GGCAAGCAAUAUUACGACUC,-0.319 ± 0.15,0.265 ± 0.17
GGCAAGCAAUAUUACGAGGC,-0.0179 ± 0.3,
GGCAAGCAAUAUUACGAGGU,-2.6 ± 0.24,-1.27 ± 0.21
GGCAAGCAAUAUUACGAGUC,-2.64 ± 0.12,-1.78 ± 0.13
GGCAAGCAAUAUUACGAUUA,-0.726 ± 0.1,-0.234 ± 0.093
GGCAAGCAAUAUUACGCAAU,-1.03 ± 0.097,0.802 ± 0.11
